Substrate: O=[N+]([O-])c1ccccc1O[C@@H]1O[C@H](CO)[C@H](O)[C@H](O)[C@H]1O
Experiment: purified protein
Type: biochemical, Bifidobacterium breve
Details: 50 mM sodium phosphate pH 6.5, 30°C

Protein	Km [µM]	Vmax [µmol/min/mg]	kcat [s⁻¹]	kcat/Km [M⁻¹ s⁻¹]
β-gal I (Bifidobacterium breve DSM 20213 = JCM 1192) (protein, full length, C-terminal His6 tag kept (pET-21a), E. coli T7 Express with GroEL/GroES, IMAC; calculated 116,127 Da; homodimer 220 kDa; GH2; N-terminus from primer MQGKAKT, C-terminus before tag DVTLELI) MQGKAKTIMTNLQSAQQFSQAWLTDPRVFAVNRLAAHSSHKFYDHAPQCGEAMDLKQSLDGQWRVQMVDLADLADNELAEAAFAQPGYDAAGFSPIEVPSALETKGFLNHQYVNQQYPWSGHESPVAPDVPKHNHVALYRHEFSLEPKAAAVLEANKTAADDTAKRRVTLTFQGAATAIAVWLNGAFIGYAEDSFTPSEFDVTDVLRDGVNTLAVACFEFSSASWLEDQDFWRLHGIFRSVELEAQPLVHVNDLRVLADYDHTTGEGSLDVVALVRNAGTAAAVAATVLDAAGNTVWHSKLTAGADAETLTVKANVGKVNPWSAEEPTLYTLQVVATDAAGQVIEAALQRIGFRHFAIEDGLMKLNGKRIVFKGVDRHEFDARTGRTIAEADMIEDIHSFKRLNINAVRTSHYPNETRWYELCDEYGIYVLDETNLETHGSWTDPGDVFQPARAIPGSKDEWRAACVDRTASMVRRDYNHPSVVIWSLGNEAFGGDVFYSMRDFVHENDPFRPVHYEGTFNDPEFSAATDIMSRMYAKPDEIVKLYLGEDGKKPYISCEYSHSMGNSTGGLHLYTELERYPLYQGGFIWDYVDQALWQDCGDGTERLAYGGDFEDRPNDYEFSGDGVMFADRTPSPKAQEVKQLYANVKLVPDESGVTITNDNLFVSTASSLFTARVLVDGVERWHANYRFDVPAGETVREPIAFPKVTDLVALSGSAEVTYEVDQRLAEATDWAPAGYELTFGQYVAAVSFDDGAADAVVAGDAEVAADGFNAGIHTDFGEVLLSKTQGGMVSFKRDGREMVIRRPNLTTFRALTDNDRGNGSGFERAQWMAAGRYARVTDTSVEETADGKGLKATYSYELADAKHTPVTVHYEVDAALRVHLTVEYPGEADAATLPAFGLEWILPKQYDRLRFYGLGPEETYADRLHGAKLGVFSRTAAEDCAPYLLPQETGNHEQVRWAEITDEYGHGMRVTAAGGTRFATSLLPYSSLMLEDALHQNELPKPRHTFLRLLAAQMGVGGDDTWGAPVHDEFQVPADQPLKLDVTLELI	1300 ± 100	486	939 ± 7	722000 ± 66000
β-gal II (Bifidobacterium breve DSM 20213 = JCM 1192) (protein, full length, C-terminal His6 tag kept (pET-21a), E. coli T7 Express with GroEL/GroES, IMAC; calculated 116,594 Da; homodimer 211 kDa; GH2; N-terminus from primer MNTTDDQ, C-terminus before tag DVNLELI) MNTTDDQLKNGDPIVSPSMPTTAWLTDPRVYAVHRLDAHSDHACWSHAPVNGEGSDLGQSLDGEWRVRVETAPTGRFPDGTSDVSPLFAASDFDDSSFSRVQVPSHLETAGLLAPQYVNVQYPWDGHEDPEAPAIPEHGHVAVYRREFDADGEVAQAVREGHPVTLTFQGAATAIYVWLNGSFVGYAEDSFTPSEFDVTDAIKMEGNVLAVACYEYSSASWLEDQDFWRLHGLFRSVELNARPSAHVADIHADTDWDPATSRGSLSLDILVDGTPNAATADLVLRDKNGTTVWHTSTEATGTLHAEAEIDGASPWSAERPDLYTLSIALLDADGRILEIARTRIGFRRVSIEDGILKLNGKRLVFRGVNRHEFDCRRGRAITEEDMLWDIRFMKRHNINAVRTSHYPNQSRWYELCDEYGIYLIDETNLETHGSWNSPGDIPVGTSVPGDDEAWLGACIDRLDSMIMRDRNHPSVLIWSLGNESYAGEVLKAMSAHAHRLDPGRPVHYEGVNWNHAYDEISDFESRMYAKPAEIRDWLEHGDERGEASKPFVSCEYMHAMGNSCGGLSEFIDLERYERYSGGFIWDYIDQGLVQRLPDGCERLSVGGDWGDRPTDYEFVGNGIVFADRTPSPKAQEVKQLYSPVKLTPDGHGVTIENRNLFASTDGYVFAARLLEDGREIWHADYRFDVAAGDTQHHDIAFPDIDSDEGTREVTYEVDLLLAEATAWAPAGYELAFGQLTDTLNPEGDITGNNQDDGRATVTLSRWNAGIRRDDEEILMSRTQGGIVSWKRNGREMVIRRPEIVTFRPLTDNDRGNRSGYDRAAWFAAGRYAVVTDTSITQSDDGGLTAAYRYELADPDHTPVSVTYRVTPGMRMQLTVEYPGNAAGAASLPAFGIEWELPGEYQHLRYYGTGPEETYRDRKQGGKLGIWDTTSEASTAPYLMVQETGSHEDVRWLEATDIQGHGLRVTQRGDRHFTASLLPWNTYTIEAARRHEDLPAPRHNYLRLLAAQMGVGGDDSWGAPVHTAYQLPADRPLTLDVNLELI	670 ± 70	188	364 ± 6	543000 ± 65000

— paper PMC4121272, “Two β-Galactosidases from the Human Isolate Bifidobacterium breve DSM 20213: Molecular Cloning and Expression, Biochemical Characterization and Synthesis of Galacto-Oligosaccharides” (PLoS ONE, 2014)
